Columns and labels:
[1] = target: T1, CTC1;STN1;TEN1;POLA1 (p180);POLA2 (p70);PRIM1 (p49);PRIM2 (p58) (human;human;human;human;human;human;huma …, UniProt Q2NKJ3;Q9H668;Q86WV5;P09884;Q14181;P49642;P49643 …, ||||||); assay: negative-stain EM
[2] = target: T1, CTC1;STN1;TEN1;POLA1 (p180);POLA2 …; assay: cryo-EM
[3] = target: T1, CTC1;STN1;TEN1;POLA1 (p180);POLA2 …; assay: cryo-EM; remark: listed apart in the source

B1: (TTAGGG)2TTA 15-nt template (ssDNA)
DNA: TTAGGGTTAGGGTTA
Q: Does B1 bind [1]?
A: binds

B2: 6xTEL (ssDNA)
DNA: TTAGGGTTAGGGTTAGGGTTAGGGTTAGGGTTAGGG
Q: Does B2 bind [2]?
A: binds

B3: 3xTEL (ssDNA)
DNA: TTAGGGTTAGGGTTAGGG
Q: Does B3 bind [3]?
A: binds

From paper PMC10268231 (Nature, 2021)
